Results taken from the nanobody polyreactivity screen of Harvey et al. (2022).

Test: yeast display, Sf9 membrane polyspecificity reagent, FACS + sequencing; frameworks hold sequencing errors
In short: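 Using colony PCR, genes from sorted yeast display clones were amplified, then sequenced on MiSeq at 2 × 250 and filtered by CDR length. The clones had been stained with 10% biotinylated, detergent-solubilized Sf9 membrane reagent for 1 hour at 4 °C and sorted by FACS into low and high (top ~1%) gates on anti-HA and streptavidin fluorescence. Polyreactivity labels come from the gate of origin.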

Sequence	polyreactivity (PSR sort gate)
QVQLVESGGGLVQAGGSLRLSCAASGSTFILYAMGWYRQAPGKERELVAAISSDGSTYYADSVKGRFTISRDNAKNTVYLQMNSLKPEDTAVYYCAADSDTFYYTGYDYDYWGQGTQVTVSS	low polyreactivity
QVQLVESGGGLVQAGGSLRLSCAASGRTFGKNAMGWYRQAPGKEREFVAAITSRGGSTYYADSVKGRFTISRDNAKNTVYLQMNSLKAEDTAVYYCNREYIRPSQRTEHYYWGQGTQVTVSS	low polyreactivity
QVQLVESGGGLVQAGGSLRLSCAASGLIFTPYAMGWYRQAPGKERELVAAINYGGSRTYYADSVKGRFTISRDNAKNTVYLQMNSLKPEDTAVYYCAARGFTLSYVDMYYWGLGTQVTVSS	high polyreactivity
QVQLVESGGGLVQAGGSLRLSCAASGSIFKPYAMGWYRQAPGKERELVAAISSSGGSTYYADSVKGRFTISRDNAKNTVYFQMNSLKPEDTAVYYCNADWYYAGYGYWGQGTQVTVSS	low polyreactivity
QGQLVDSGGGLVQAGGSLRLICAASGYIFRLYAMGWYRHAPGKERELVAAISRRGGSTYYADSVKGRFTISRDNAKITVYLQMNSLKPEDTAVYYGATDHSYIDDYWGQGTQVTVSS	high polyreactivity
QVQLVESGGGLVQAGGSLRLSCAASGSTFYTYAMGWYRQAPGKEMELVAAIRSAGSTYYADSVKGRFTISRDNAKNTVYLQMNSLKPEDTAVYYCNTVARSSVGYEYWGQGTQVTVSS	high polyreactivity
QDQLVESGGGLVQAGGSLRLSGAASGRIFGYYAMGWYRQPPGKETELVARISSGGGSTYYADSVKGRFTISRDNAKNTVYLQLNSLKPEDTAVDYCATVLYPYSPRYDYWGQGTLVTVSS	high polyreactivity
QVQLLESGGGLVQAGRSLRLSCAASGRIFRYYAMGWYRQAPGKERELVAAISYSTGGTSTYADSVKGRFTISRDNAKTTVYLQMNSLKPEDTAVYYCAVRRQYRRAYSFSQSRYDYWGQGTQVTVSS	high polyreactivity
QVQLVESGGGLVQAGGSLRLSCAASGFTFNYNARGWYSQAPGNDRELVAAIRRSGGSTYYADSGKGRFTISRDNAKNTVYLQMNSLKPEDTAVYYCAARQSFLYGYWGQGTQVTVSS	high polyreactivity
QVQLVESGGGLVQAGGSLRLSCAASGRTFYYYAMGWYRQAPGKEREYVASITWRGGRTYYADSVKGRFTISRDNAKNTVYLQMNSLKPEDTAVYYCAADGSYAIGGYGYWGQGTQVTVSS	high polyreactivity
QVQLVESGGGLVQAGGSLRLSCAASGRIFEGYAMGWYRPAPGKQRELVAAISKSGGRTNYADSVKGRFTISRDNAKNTVYLQMNSLKPEDSAVYYCNAGIKYWGSDFFYWGQVTQVTVSS	high polyreactivity
QVQLGESGGGLVQAGGSLRLSCAASGSTFVGSAMGWYIQAPGKDRELVAAISYSGGSTYYADSVKGRFTISRDNAKNTVYLQMNSLKPEDTAVYYCAAEWSRHYYYGPRYHYWGQGTQVTVSS	low polyreactivity
QVQLQERGGGLVQAGGSLRLGCEASGNISDDGYMGWYRQAPGKEREFVAAIAAGSNTNYADSVKGRFTISRDNAKNTVYLQMNSLKPVETAVFYCAVASYARVQYLYWGQGTQVTVYS	low polyreactivity
QVQLVESGGGLVQAGGSLRLSCAASGSIFWKNVMGWYRHAPGKERELVAGISQNGGSTTYADSVKGRFTISRDNAKNTVYLQMNSLKPEDTAVYYCAAKRYGPFKYGYWGQGTQVTVSS	high polyreactivity
QVQLVESGGGLVQAGGSLRLSCAASGRIFFTYVMGWYRQAPGKEREFVAAITFSDGTTYYADSVKGRFTISRDNAKNTVYLQMNSLKPEDTAVYYCNTDSFYGFVYPWTISSEVDYWGQGTQVTVSS	low polyreactivity
QVQLVESGGGLVQAGGSLRLSCAASGSIFGRYAMGWYRQAPGKERELVAAISWRGGSTYYADSVKGRFTISRDNAKNTVYLQMNSLKPEDTAVYYCNVPYRSGYSHRYDYWGQGTQVTVSS	high polyreactivity
QVQLVESGGGLVQAGGSLRLSCAASGSIFSSYAMGWYRQAPGKERELVAAITRTGGRTYYADSVKGRFTISRDNAKNTVYLQMNSLKPEDTAVYYCAAKQVSRGVAAYDYWGQGTQVTVSS	high polyreactivity
QVQLVESGGGIVQAGGSLRLSCAASGGTFQRNAMGWYIQAPGKEREFVATITRGGGSTYYADSVKGRFTISRDNAKNTVYFQMNSLKPEDSAVYYCNANTSYYQRYNYWGQGTQVTVSS	high polyreactivity
QVQLVESGGGLVQAGGSLRLSCAASGFTFYRYAMGWYRQAPGKERELVAAITSRGTSTYYADSVKGRFTISRDNAKNTVYLQMNSLKPEDTAVYYCAVKGYRYGTRYDYWGQGTQVTVSS	high polyreactivity
QVQLVESGGGLVQAGGSLRLSCAASGSTFYTYTMGWYRQAPGKERELVAAISSSGGDTYYADSVKGRFTISRDNAKNTVYLQMNSLKPEDTAVYYCAALGAFPSLEFDYWGQGTQVTVSS	low polyreactivity
QVQLVESGGGLVQAGGSLRLSCAASGFTFWTYAMGWYRQAPGKERELVAAISTSGGSTYYADSVKGRFTISRDNAKNTVYLQINSLKPEDTAVYYCAAYAIGEHFRARYGYWGQGTQVTVSS	high polyreactivity

Sequence	polyreactivity (PSR sort gate)
QVQLVESGGGLVQAGGSLRISCAASGFIFYGNAMGWYIQAPGKERELVASITGGGRTYYADSVKGRFTISRDNAKNTVYLQMNSLKPEDTAVYYCATLLAYRLGSGYDSWGQGTQVTVSS	high polyreactivity
QVQLVESGGGLVQAGGSLRLICAASGYTFEYNAMGWSRQAPGKEREFVATITASGDSTYYADSVKGRFTISRDNAKNTVYLQMNSLKPEDTAVYYCATEKRDVYFTAKYDYWGQGTQVTVSS	low polyreactivity
QVQLVESGGGLVQAGGSLRLSCAASGFIFRYYAMGWYRQAPGKERELVAAITNSGVSTYYADSVKGRFTISRDNAKNTVYLQMNSLKPEDTAVYYCAATYRTRTSQYDYWGQGTQVTVSS	high polyreactivity
QVQLVESGGGLVQAGGSLRLSCAASGRIFTGNVMGLYRQAPGKERELVAAITYRGGSTYYADSVKGRFTISRDNAKNTVYLQMNSLKPEDTAVYYCNTGWDPYGYDYWGQGTQVTVSS	low polyreactivity
QVQLGESGGGLVQAGGSLRLSCAASGGIFDIYAMGWYRQAPGKERELVAAIRGSGGRTYYADSVKGRFTISRDNAKNSLYLQMNSLKPEDTAVYYCAARPSIVTGLRYGYWGQGTQVTVSS	high polyreactivity
QVQLVESGGGLVQAGGSLRLSCADSGNTFKGYAMGWYRQAPGKERELVAAISWSGSSTYYADSVKGRFTISRDNAKNTVYLQMNSLKPEDTAVYYCAVTYRRFYYWGQGTQVTVSS	high polyreactivity
QVQLVESGGGLVQEGGSLRLSCAASGFIFTPNTMGWYRQAPGKERELVAAITTNGGRTYYADSVKGRFTISRDNAKNTVYLQMNSLKSEDTAVYYCAARYVSSFGLHAQVWSYYYCGQGTQVTVSS	high polyreactivity
QVQLVESGGGLVQAGGSLRLSCAASGSTLYNNAMGWYRQAPGKERELVAAITRRGGSTYYADSVKGRFTISRDNAKNTVYLQMNSLNPEDTAVYFCAADDSRYASGQFQEEYDYWGLGTQVTVSS	low polyreactivity
QVQLVESGGGLVQAGGSLRLSCAASGLIFPSYAMGWYRQAPGKEMELVAAITFSGSDTNYADSVKGRFTISRDNAKNTVYLQMNSLKPEDTAVAYCAAAYFDFWGWLHDYWGQGTQVTVSS	low polyreactivity
QVQLVESVGGLVQAGGSLRLSSAASGLIFNEYVMGWYRQAPGKERELVAGISRIGGSTYYADSVKGRFTISRDNAKNTVYLQMKSLKQEDTAVYYCARPNLLSGDYWGQGTQVTVSS	high polyreactivity
QVQLVESGGGLVQAGGILRLSWAASGRTFRYYAMGWYRQAPGKDREFVAAISWSGGSTYYADSVKGRFTISRDNAKNTVYLQMNSLKPEDTAVFYCAAESIYTWGIRGAYWGQGTQVTVSS	high polyreactivity
QVQLVESGGGLVQAGGSLRLSCAASGRTFGGYTMGWYRQAPGKEREFVAAITWSTGGSTYYADSVKGRFTISRDNAKNTVYLQMNSLKPEDTAVYYCAKDLYLHTYYAYPYRFGSGYYWGLGTQVTVSS	low polyreactivity
QGQLVESGGGLVQAGGSLRLSCAASGFSFQYYAMGWSRHAHGKERELVAAINRGGGTHYADSVKGRFTISRDNAKNTVYFQMHSLKPEDTAVYYCNKVYYWPGSRPSRYEYWGQGTQVTVSS	low polyreactivity
QVQLVESGGGLVQAGGSLRLSCAASGITFGRNTMGWYRQAPGKERELVAAIDSGGNTYADSVKGRFTISRDNAKNTVYLQMNSLKPEDTAVYYCAVDGGEFSSSGYWGQGTQVPVSS	low polyreactivity
QVQLVESGGGLVQAGGSLRLSCAASGMVWYRQAPGKERELVAAITSGDSTNYADSVKGRFTISRDNAKNTVYLQMNCLKPEDTSVYYCAADPDYLYAYFYWGQGTQVSVSS	low polyreactivity
QVQLVESGGGLVQAGGSLRLSCAASGSIFGSYAMGWYRQAPGKERELVAVITSASTNYADSVKGRFTISRDNAKNTVYLQMNSLKPEDTAVYYCNAALSHDFWNYRLGYWGQGTQVTVSS	low polyreactivity
QVQLVESGGGLVQAGGSLRLSCAASGGIFRANTMGWYRQAPGKERELVAVISWSGARTYYADSVKGRFTISRDNAKNTVYLQMNSLKPEDTAVYYCNARVPKLGSMYYWGHGTQVTVSS	high polyreactivity
QVQLVESGGGLLQAGGRLRLSCAASGGIFQGYAMGWYRQAPGKERELVAAISRSGGRTYYADSVKGRFTISRDNAKNTVYLQMNSLKPEDTAVYYCAKSQSAKGGYDYWGQATQVTVSS	high polyreactivity
QVQLVESGGGLVQAGGSLRLSCAASGFTFYYNAMGWYRQAPGKERELVASISSNGTSTYYADSVKGRFTISRDNAMYTVYLQMNSLKPEDTAGYYCAADDVCVYWSSTHNWARGDYWGQGSQVTVSS	low polyreactivity
QVQLVESGGGLVQAGGSLRLSCVASGSILAYYAMGWYRQAPGKERELVAAISRSGGSTYYADSVKRRFTISRDNAKNTVNLQMNSLKPEDTAVYYCAADFRRWQYNTVNEFGYWGQGTQVTVSS	high polyreactivity
